Source: US20040106545A1 (MCGILL UNIVERSITY, published 2004)
Positions of bridges follow the written chain, without caps; N, C: chain ends.

T1: chick N-cadherin expressed on transfected 3T3 cells (chick, UniProt P10288 165-912)
T1 sequence (looked up): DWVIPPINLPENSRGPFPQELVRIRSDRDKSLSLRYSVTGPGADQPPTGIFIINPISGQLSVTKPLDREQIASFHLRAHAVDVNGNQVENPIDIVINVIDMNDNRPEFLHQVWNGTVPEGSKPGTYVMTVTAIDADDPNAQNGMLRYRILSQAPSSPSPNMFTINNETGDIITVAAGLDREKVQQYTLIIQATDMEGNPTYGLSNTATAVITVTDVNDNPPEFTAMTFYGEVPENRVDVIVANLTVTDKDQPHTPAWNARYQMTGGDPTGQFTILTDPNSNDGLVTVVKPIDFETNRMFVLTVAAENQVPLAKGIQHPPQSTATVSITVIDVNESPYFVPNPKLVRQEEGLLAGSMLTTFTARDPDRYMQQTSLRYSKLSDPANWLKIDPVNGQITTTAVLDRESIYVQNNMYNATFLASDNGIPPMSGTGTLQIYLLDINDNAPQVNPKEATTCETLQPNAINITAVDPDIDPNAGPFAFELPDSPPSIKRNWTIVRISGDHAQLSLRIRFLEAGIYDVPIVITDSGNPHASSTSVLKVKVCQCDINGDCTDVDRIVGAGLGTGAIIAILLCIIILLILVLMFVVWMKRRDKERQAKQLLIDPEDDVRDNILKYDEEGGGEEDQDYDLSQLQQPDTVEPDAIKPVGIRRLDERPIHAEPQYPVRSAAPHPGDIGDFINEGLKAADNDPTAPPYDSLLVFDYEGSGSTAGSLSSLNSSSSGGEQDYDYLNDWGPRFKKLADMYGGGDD


Legend:
[1] = target: T1, chick N-cadherin expressed on …; assay: cell-based or functional assay
[2] = target: N-cadherin expressed on transfected 3T3 cells (Examples 2 and 21); assay: cell-based or functional assay

% inhibition of N-cadherin dependent neurite outgrowth (peptide 250 µg/mL) [1] [%]	% Inhibition of neurite outgrowth, 250 µg/mL (rat neurons) [2] [%]	Binder
4	–	Ac-CAHGVDC-NH2 (disulfide 1-7 (inferred)) [N-Ac-CAHGVDC-NH2]
-6.4	0	Ac-CAHGVC-NH2 (disulfide 1-6 (inferred)) [N-Ac-CAHGVC-NH2]
10.8	0	Ac-CSHGVSC-NH2 (disulfide 1-7; SMILES CC(=O)N[C@H]1CSSC[C@@H](C(N)=O)NC(=O)[C@H](CO)NC(=O)[C@H](C(C)C)NC(=O)CNC(=O)[C@H](Cc2c[nH]cn2)NC(=O)[C@H](CO)NC1=O) [N-Ac-CSHGVSC-NH2]
76.3	60	Ac-CLRAHAVDC-NH2 (disulfide 1-9 (inferred)) [N-Ac-CLRAHAVDC-NH2]
89.4	82	Ac-CAHAVDIC-NH2 (disulfide 1-8 (inferred)) [N-Ac-CAHAVDIC-NH2]
-6.7	0	Ac-CHGVSC-NH2 (disulfide 1-6 (inferred)) [N-Ac-CHGVSC-NH2]
–	0	Ac-KHGVD-NH2 (lactam 1-5 (inferred)) [N-Ac-KHGVD-NH2]
–	0	Ac-KHAVD-NH2 (lactam 1-5 (inferred)) [N-Ac-KHAVD-NH2]
7.8	0	H-CHGVC-NH2 (disulfide 1-5 (inferred)) [H-CHGVC-NH2]
–	0	H-KHGVD-NH2 (lactam 1-5 (inferred)) [H-KHGVD-NH2]
5.7	0	H-CAHGVDC-NH2 (disulfide 1-7 (inferred)) [H-CAHGVDC-NH2]
58.5	51	Ac-CAHAVC-NH2 (disulfide 1-6 (inferred)) [N-Ac-CAHAVC-NH2]
-2.5	0	Ac-CHAVSC-NH2 (disulfide 1-6 (inferred)) [N-Ac-CHAVSC-NH2]
8.3	0	Ac-CSHAVSC-NH2 (disulfide 1-7; SMILES CC(=O)N[C@H]1CSSC[C@@H](C(N)=O)NC(=O)[C@H](CO)NC(=O)[C@H](C(C)C)NC(=O)[C@H](C)NC(=O)[C@H](Cc2c[nH]cn2)NC(=O)[C@H](CO)NC1=O) [N-Ac-CSHAVSC-NH2]
-6.8	0	Ac-CLRAHGVDC-NH2 (disulfide 1-9 (inferred)) [N-Ac-CLRAHGVDC-NH2]
-12.6	0	Ac-CSHAVSSC-NH2 (disulfide 1-8; SMILES CC(=O)N[C@H]1CSSC[C@@H](C(N)=O)NC(=O)[C@H](CO)NC(=O)[C@H](CO)NC(=O)[C@H](C(C)C)NC(=O)[C@H](C)NC(=O)[C@H](Cc2c[nH]cn2)NC(=O)[C@H](CO)NC1=O) [N-Ac-CSHAVSSC-NH2]
4.8	0	Ac-CHGVC-NH2 (disulfide 1-5 (inferred)) [N-Ac-CHGVC-NH2]
13.3	–	Ac-CAHAVDC-NH2 (disulfide 1-7 (inferred)) [N-Ac-CAHAVDC-NH2]
-5	0	Ac-CRAHAVDC-NH2 (disulfide 1-8 (inferred)) [N-Ac-CRAHAVDC-NH2]
12.5	0	Ac-CSHGVC-NH2 (disulfide 1-6; SMILES CC(=O)N[C@H]1CSSC[C@@H](C(N)=O)NC(=O)[C@H](C(C)C)NC(=O)CNC(=O)[C@H](Cc2c[nH]cn2)NC(=O)[C@H](CO)NC1=O) [N-Ac-CSHGVC-NH2]
–	0	H-KHAVD-NH2 (lactam 1-5 (inferred)) [H-KHAVD-NH2]
-8.6	0	Ac-CHGVDC-NH2 (disulfide 1-6 (inferred)) [N-Ac-CHGVDC-NH2]
7.2	0	H-CAHGVDIC-NH2 (disulfide 1-8 (inferred)) [H-CAHGVDIC-NH2]
4.8	0	Ac-CAHGVDIC-NH2 (disulfide 1-8 (inferred)) [N-Ac-CAHGVDIC-NH2]
-0.5	0	Ac-CLRAHGVC-NH2 (disulfide 1-8 (inferred)) [N-Ac-CLRAHGVC-NH2]
9.9	0	Ac-CLRAHAVC-NH2 (disulfide 1-8 (inferred)) [N-Ac-CLRAHAVC-NH2]
-8	0	Ac-CRAHGVDC-NH2 (disulfide 1-8 (inferred)) [N-Ac-CRAHGVDC-NH2]
